Laboratory results from patent publication US20260258115A1.

What was measured:
[1] = target: RSV postfusion F (postF, F deltaFP) (Respiratory syncytial virus); assay: BLI, IgG on sensor, 100 nM antigen
[2] = target: RSV prefusion F (preF, DS-Cav1) (Respiratory syncytial virus); assay: BLI, IgG on sensor, 100 nM antigen

Row | Binder | Kd [1] [nM] | Kd [2] [nM]
1 | ADI-41299 (antibody, V domains shown) VH: EVQLVESGGGLVHPGRSLRLSCGASGFTFRSFAMHWVRQAPGKGLEWVAVISYDGSDEYYADSVKGRFTISRDNSRNTLFLQMNRLRPEDTAIYYCARAYCSTSNCPVLDYWGQGTLVTVSS VL: QSVLIQPASVSGSPGQSITISCTGTSSDVGGYSLVSWYQQHPGKAPKLIIFEGNKRPAGVSDRFSGSKYGDTASLTISGLQAEDEADYYCCSYAGGHSVFGGGTKVTVL | 2.25 | 3.48
2 | ADI-41283 (antibody, V domains shown) VH: QVTLKESGPTLVKPTQTLTLTCTFSGFSLSTFGVAVGWIRQPPGKALEWLALIYWDDDKRYSPSLKSRLTITKDISKNQVVLTMTNMDPVDTATYYCAHRLRSLTARGVFDIWGQGTTVTVSS VL: DIRLTQSPSSLSASVGDRVTITCRASQSINNFLNWYQQRPGKAPTLLIYSASSLQSGVPSRFSGSGSGTDFTLTISSLQPEDFATYFCQQTDSFPWTFGQGTKVEIK | 7.95 | 27.4
3 | ADI-41282 (antibody, V domains shown) VH: QVQLVQSGGGVVQPGRSLRLSCAASGFMFTIYSMHWVRQAPGKGLEWVAVISNDGVNKYYSDSVKGRFTISRDNSKNTLYLQMNNLRAEDTAVYYCASDIVVLVTATDYWGQGTLVTVSS VL: ETTLTQSPVTLSLSPGERATLSCRTSQSFSSPLLAWYQQKPGQAPRLLIYGASNRATGIPDRFSGSGSGTDFTLTISRLEPVDFAVYYCQQYGSSPYTFGQGTKLEIK | 1.25 | 3.25
4 | ADI-41284 (antibody, V domains shown) VH: QVQLVQSGGGLVKPGGSLRLSCAASGFTFSNAWMSWVRQAPGKGLEWVGRIKSEVDGGTADYAANVKGRLTISRDDSKNMMYLQMNSLKTEDTAVYYCTTDPGVGWIFGEVKLFRTDPEYWGQGTLVTVSS VL: QSVLTQPPSVSAAPGQKVTISCSGSSSNIGNHYVSWYQQLPGTSPKLLIYDNNKRPSGIPDRFSGSKSGTSATLGITGLQPGDEADYYCGTWDSSLSAVRVFGGGTKVTVL | 0.547 | 3.06
5 | ADI-41286 (antibody, V domains shown) VH: QVQLVQSGAEVKKPGASVKVSCKASGYTFISYGISWVRQAPGQGPEWMGWISTHNGNTNYAQKLQGRVTMTTDTSTSTAYMELRSLRSDDTAVYYCARDERSIAVEVYLGSTFDIWGQGTMVTVSS VL: DIQVTQSPSSVSASVGDRVTITCRASQGISSWLAWYQQKPGKAPKLLIYAASTLQSGVPSRFSGSGSGTDFTLTISRLQPEDFATYYCQQANIFGVTFGPGTKVDIK | 5.49 | 7.6
6 | ADI-41297 (antibody, V domains shown) VH: QVQLVQSGAEVKKPGSSVKVSCKASGGTFSTDAISWVRQAPGQGLEWMGGIIPLFGTANYAQKFQGRVTITADESTSTAYMELNSLRSVDTAVYYCGRTGAFDGEVVVRPHLDLWGQGTLVTVSS VL: QPVLTQPASVSGSPGQSITISCTGTSSDVGGYDYVSWYQHHPGKAPKLMIYEVSNRPSGVSNRFSGSKSGNTASLTISGLQADDEAAYYCSSYTRSNTLLFGGGTKLTVL | 0.628 | 3.91
7 | ADI-41293 (antibody, V domains shown) VH: QVQLQQSGPGLAKPSQTLSLTCTVSGGPISGVDYYWSWIRQPPGKGLEWIGYIYYSGSTYYNPSLKSRVTISVDTSKKQFSLKMSSVTAADTAVYYCARDVGATPYYYYGMDVWGQGTTVTVSS VL: DIVLTQSPDTLSLSPGERATLSCRASQSVRSNYLAWYQHKPGQAPRLLIYGASSRVAGIPDRFSGSGSGTDFTLTISRLEPEDFAVYYCQQYGSSPPSVTFGGGTKVEIK | 0.411 | 0.496
8 | ADI-41291 (antibody, V domains shown) VH: QVQLQQWGAGLLKPSETLSLTCVVYGESFSDSGYYWTWIRQPPEKGLEWIGEINHGGSTSYNPSLKSRVTISVDTSENQFSLKVTSVTGADTAVYYCARLRLGCSGGSCYSRFDYWGQGTLVTVSS VL: DIQLTQSPSSLSASVGDRVTITCRASQSINSYLNWYQQKPGKAPVLLIHAASSLQGGVPSRFSGSGSGTDFTLTISSLQPEDFATYYCQQSYNTRWTFGHGTKVDIK | 1.2 | 2.98
9 | ADI-41270 (antibody, V domains shown) VH: EVQLVESGGGVVQPGQSLRLSCAASGFTFSSFAMHWVRQAPGKGLEWVAVISYDGSNKYYADSVKGRFTISRDNSKNTLSLQVNSLRAEDTAVYYCARVSAEGSMGRFSDFNYWGLGTLVTVSS VL: QSALTQPASVSGSPGQSITISCTGTSSDVGSYNLVSWYQQHPGKAPKLMIYEVRKRPSGVSNRFSGSKSGNTASLTISGLQAEDEADYYCCSYAGSDTYVFGTGTKLTVL | 0.617 | 4.92
10 | ADI-41285 (antibody, V domains shown) VH: QVQLVQSGAEVKKPGSSVKVSCKASGGTFSYYAISWVRQAPGQGLEWMGGIIPILGTVKNAQKFQGRVTITADKITSIAYMELSSLRHEDTAVYYCARDYYDSSGYYYNGYGMDVWGQGTTVTVSS VL: QSVLIQPPSASGTPGQRVTISCSGSSSNIGSNYVYWYQQLPGTAPKLLIYRNDQRPSGVPDRFSGSKSGTSASLAISGLRSGDEADYYCAAWDDSLGGPIWVFGGGTKLTVL | 0.412 | 0.511
11 | ADI-41273 (antibody, V domains shown) VH: EVQLLESGGDLVRPGGSLRLSCTASGFSFSSSEMNWVRQAPGKGLEWVASINSGGDDIYYADSVKGRFTISRDNAKNSLSLQMDSLRAEDTALYYCARSRSGYSSGWSRFFGNWGQGTLVTVSS VL: QSALTQPRSVSGSPGQSVTISCTGTISDIGAYNYVSWYQQHPGKAPKVMIYDVSKRPSGVPDRFSGSKSGFTASLTISGLQAEDEADYYCCSYAGRWVFGGGTKLTVL | 1.17 | 3.06
12 | ADI-41278 (antibody, V domains shown) VH: EVQLVESGPALVKPTQTLTLTCTFSGFSLSTKRMGVSWIRQPPGKALEWLARIDWDDDKFYSTSLKTRLTISKDTSKNQVVLTLANMDPVDTATYFCARTTVYASGGYYLYYLDYWGQGTLVTVSS VL: DIVMTQTPSSLSASVGDRVTLTCRASQRIASYVNWYHQKPGKAPNLLIYAASNLQSGVPSRFSGSGSGTDFTLTISSLQPEDFATYYCQQSYSTPLTFGQGTKLEIK | 0.482 | 1.28
13 | ADI-41281 (antibody, V domains shown) VH: QVQLVQSGAEVKKPGASVKVSCKASGYSFTNHGIHWVRQAPGQRLEWMGWINVANGFTAYSQNLQGRVTFTRDTSASTAYLELTSLRSEDTAVYHCARDESYCSAGYCYLYFDYWGQGTTVTVSS VL: DIQVTQSPSSLSASVGDRVTITCRASQNIITYVNWYQQKPGKAPELLIFGASSVQSGVPSRFSGSGSGTDFTLTISSLRPDDFATYYCQQSYSNPRTFGGGTKVEIK | 1.58 | 6.7
14 | ADI-41287 (antibody, V domains shown) VH: EVQLVESGGGLVQPGRSLRLSCAASGFTFDDYAMHWVRQAPGKGLEWVSSISWHSADIGYAASVEGRFTISRDNAKNSLFLQMNSLRPEDTALYYCAKEIVSTSWYSGYFQDWGQGTLVTVSS VL: QPVLTQPRSVSGSPGQSVTISCTGTSSDVGDYNYVSWYQQHPGKAPKLMIYDVSKRPSGVPDRFSGSKSGNTASLTISGLQGEDEADYYCCSYAGRHTFVFGTATKVTVL | 0.598 | 3.22
15 | ADI-41267 (antibody, V domains shown) VH: QVQLVQSGPGLVKPSGTLSLTCAVSGGSISTTHWWSWVRQPPGKGLEWIGEIYHSGSTNYNPSLKSRVTISVDKSRSQFSLKLTSVTAADTAVYYCARGDPLCSGGICYSGYFDYWGQGTLVTVSS VL: SYVLTQPPSVSVSPGQTATITCSGDKLGDQYACWYQQKSGQSPVLVIYRDNKRPSGIPERFSGSNSGNTATLTISETQAMDEADYYCQAWGSSSVVFGGGTKVTVL | 10.9 | 10.7
16 | ADI-41277 (antibody, V domains shown) VH: QVQLQESGPGLVKPSGTLSLTCAVSGGSITGRNWWSWVRQPPGKELERIGEIYHGGSTEYNPSLKGRVTISVDKSKNQFSLRLNSVTAADTAVYYCARVAHYDSNGYYIGYFDLWGRGTLVTVSS VL: EIVLTQSPPSLSASVGDRVTITCRASQSISIYLNWYQQKPGKAPKLLIFAASSLQSGVPLRFSGSGSGTDFTLTISSLQPEDFATYYCHQSYSAPWTFGQGTKVDIK | 0.78 | 3.6
17 | ADI-41292 (antibody, V domains shown) VH: EVQLLESGGGVVQPGRSLRLSCAASGFSFSSYGIHWVRQAPGKGLECVALMSYDGSEKYYADSVKGRFTISRDNSKNTLYLHMNSLRREDTAVYYCAKGSHLRWSHLDYYFHLWGRGTLVTVSS VL: DIVMTQSPSTLSASVGDRVTITCRASQSLSTWLAWYQQKPGKAPKLLISDASNLESGVPSRFSGRGSGTEFTLTISGLQPDDFATYYCQQERTFGQGTKVDIK | 195 | 883
18 | ADI-41275 (antibody, V domains shown) VH: EVQLVESGGGLVKPGGSLRLSCAASGFMFSTYSMNWVRQAPGKGLEWVSFITGSSSDKYYAHSVKGRFTISRDNAKRTLYLQLNSLRAEDTAVYYCARFRGLYCDGDCSSRGNTYYNYYGMDVWGQGTTVTVSS VL: EIVMTQSPLSLSVIPGEPASISCRSSKSLLHSNGYTYLDWYLQKPGQSPQLLIHLGSNRASGVPDRFSGSGSGTDFTLKISRVEAEDVGVFYCMQALQAPPTFGPGTKVEIK | 1.33 | 5.74
19 | ADI-41280 (antibody, V domains shown) VH: QVQLVESGPGLVKPSETLALTCTVSGGSLSTYYWSWIRQPPGKGLEWIGYIYYSGTTYYNPSLKSRVTISEDRSKNQFSLKLTSVTAADTAVYYCARHGPKTEFWSAQYYLELWGRGTLVTVSS VL: EIVLTQSPGTLSLSPGERATLSCRASQSVSSDYLAWYQQKPGQAPSLLIYGVSTRATGIPDRISGSGSGTDFTLTISRLEPEDFAVYYCHQYGTSPWTFGQGTKVEIK | 0.483 | 3.62
20 | ADI-41279 (antibody, V domains shown) VH: QVQLVQSGAEVKKAGETLKISCRGPAHTFTSFWIGWVRQTPGKGLEWMGNIYPGDTDTTYSPSFRGQVTISADKSISTAYLQWNSLKASDTAIYYCATRVRHGYSSSGSFESWGQGTMVTVSS VL: QSVVTQPPSVSGAPGQRITISCTGSNSNTGAGYDVHWYQQLPGAAPKLLIFANNNRPSGVPDRFSGSKSGTSASLAITGLQAEDEADYYCQSYDNSLSAYVFGTGTKLTVL | 47.8 | 50.4
